Patent US20230183713A1, “SITE-SPECIFIC RECOMBINASES FOR EFFICIENT AND SPECIFIC GENOME EDITING” (TECHNISCHE UNIVERSITÄt DRESDEN, published 2023)

T1: Cre recombinase monomer with Q311R mutation
T1 chain: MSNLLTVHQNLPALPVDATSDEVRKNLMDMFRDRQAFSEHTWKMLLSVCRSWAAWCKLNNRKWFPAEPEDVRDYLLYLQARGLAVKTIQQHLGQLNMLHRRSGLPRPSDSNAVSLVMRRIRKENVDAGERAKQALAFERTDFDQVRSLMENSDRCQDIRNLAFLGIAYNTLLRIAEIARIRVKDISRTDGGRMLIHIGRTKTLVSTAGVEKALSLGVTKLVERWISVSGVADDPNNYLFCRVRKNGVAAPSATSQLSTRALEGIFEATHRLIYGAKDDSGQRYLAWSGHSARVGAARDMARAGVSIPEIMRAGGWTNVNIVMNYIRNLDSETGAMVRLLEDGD

T2: Cre recombinase monomer with R292W mutation
T2 chain: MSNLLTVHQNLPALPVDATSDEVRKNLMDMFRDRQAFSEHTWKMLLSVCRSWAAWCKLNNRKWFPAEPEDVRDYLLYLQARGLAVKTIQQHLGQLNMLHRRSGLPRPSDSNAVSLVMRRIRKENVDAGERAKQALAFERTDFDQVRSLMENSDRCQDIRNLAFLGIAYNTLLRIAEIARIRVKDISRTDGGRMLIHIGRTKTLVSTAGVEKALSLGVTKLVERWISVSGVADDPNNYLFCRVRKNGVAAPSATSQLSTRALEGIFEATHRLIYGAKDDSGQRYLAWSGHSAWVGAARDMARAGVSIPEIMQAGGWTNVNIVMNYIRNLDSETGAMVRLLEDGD

T3: Cre recombinase monomer with W315I mutation
T3 chain: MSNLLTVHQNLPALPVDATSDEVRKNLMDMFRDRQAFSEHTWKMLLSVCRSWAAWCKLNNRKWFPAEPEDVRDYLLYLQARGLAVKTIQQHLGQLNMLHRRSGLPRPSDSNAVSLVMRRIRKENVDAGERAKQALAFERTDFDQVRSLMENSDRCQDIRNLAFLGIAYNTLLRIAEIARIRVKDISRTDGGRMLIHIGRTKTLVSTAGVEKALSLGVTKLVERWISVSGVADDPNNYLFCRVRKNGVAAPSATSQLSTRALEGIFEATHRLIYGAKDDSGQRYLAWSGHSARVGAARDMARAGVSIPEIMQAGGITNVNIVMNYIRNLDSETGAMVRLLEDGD

T4: Cre recombinase monomer with Y324M mutation
T4 chain: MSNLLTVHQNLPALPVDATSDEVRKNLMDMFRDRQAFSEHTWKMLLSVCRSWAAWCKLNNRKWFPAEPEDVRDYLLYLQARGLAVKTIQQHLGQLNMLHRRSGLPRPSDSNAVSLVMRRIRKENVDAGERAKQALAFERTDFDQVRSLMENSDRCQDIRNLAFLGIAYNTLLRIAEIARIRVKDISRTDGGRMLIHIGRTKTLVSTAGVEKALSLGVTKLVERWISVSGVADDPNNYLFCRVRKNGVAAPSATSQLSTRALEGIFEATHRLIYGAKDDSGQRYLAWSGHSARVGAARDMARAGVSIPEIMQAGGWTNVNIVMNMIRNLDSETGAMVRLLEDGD

T5: Cre recombinase monomer with E176V mutation
T5 chain: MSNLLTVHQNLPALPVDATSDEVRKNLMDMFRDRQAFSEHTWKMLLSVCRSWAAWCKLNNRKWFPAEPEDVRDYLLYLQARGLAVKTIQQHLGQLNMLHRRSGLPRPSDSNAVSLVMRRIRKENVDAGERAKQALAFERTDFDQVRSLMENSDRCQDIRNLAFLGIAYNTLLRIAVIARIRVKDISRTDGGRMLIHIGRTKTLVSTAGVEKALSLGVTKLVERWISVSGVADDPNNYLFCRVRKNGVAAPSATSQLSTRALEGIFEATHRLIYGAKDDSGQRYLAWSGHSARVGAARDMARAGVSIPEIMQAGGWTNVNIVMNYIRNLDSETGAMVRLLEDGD

T6: Cre recombinase monomer with Y324E mutation
T6 chain: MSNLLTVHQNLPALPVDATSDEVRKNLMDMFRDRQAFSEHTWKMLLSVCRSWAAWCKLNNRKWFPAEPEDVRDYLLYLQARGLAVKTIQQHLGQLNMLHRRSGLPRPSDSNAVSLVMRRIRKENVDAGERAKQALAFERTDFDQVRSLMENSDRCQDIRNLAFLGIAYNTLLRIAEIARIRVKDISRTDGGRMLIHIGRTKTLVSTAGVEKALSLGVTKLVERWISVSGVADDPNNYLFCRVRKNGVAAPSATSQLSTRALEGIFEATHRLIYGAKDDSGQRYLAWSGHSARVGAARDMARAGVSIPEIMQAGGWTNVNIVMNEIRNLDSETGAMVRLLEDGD

T7: Cre recombinase monomer with E176H mutation
T7 chain: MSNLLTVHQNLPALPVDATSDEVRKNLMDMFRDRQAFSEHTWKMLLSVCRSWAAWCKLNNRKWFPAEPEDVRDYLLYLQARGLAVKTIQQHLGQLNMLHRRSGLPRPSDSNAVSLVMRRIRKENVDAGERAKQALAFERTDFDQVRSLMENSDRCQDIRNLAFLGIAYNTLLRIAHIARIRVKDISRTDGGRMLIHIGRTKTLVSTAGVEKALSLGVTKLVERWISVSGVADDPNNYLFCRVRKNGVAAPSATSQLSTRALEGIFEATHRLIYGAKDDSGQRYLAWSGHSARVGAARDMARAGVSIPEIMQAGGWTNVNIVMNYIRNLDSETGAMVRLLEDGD

T8: Cre recombinase monomer with E176I mutation
T8 chain: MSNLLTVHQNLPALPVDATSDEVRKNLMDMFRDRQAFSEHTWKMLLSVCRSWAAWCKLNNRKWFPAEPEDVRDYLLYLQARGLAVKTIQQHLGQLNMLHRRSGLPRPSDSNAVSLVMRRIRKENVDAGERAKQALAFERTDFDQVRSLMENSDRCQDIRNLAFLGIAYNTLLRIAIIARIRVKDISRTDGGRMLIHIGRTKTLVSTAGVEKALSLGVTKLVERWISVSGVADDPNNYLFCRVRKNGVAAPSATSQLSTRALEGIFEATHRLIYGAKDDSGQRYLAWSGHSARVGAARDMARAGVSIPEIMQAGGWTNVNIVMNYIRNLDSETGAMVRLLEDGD

T9: Cre recombinase monomer with K201W mutation
T9 chain: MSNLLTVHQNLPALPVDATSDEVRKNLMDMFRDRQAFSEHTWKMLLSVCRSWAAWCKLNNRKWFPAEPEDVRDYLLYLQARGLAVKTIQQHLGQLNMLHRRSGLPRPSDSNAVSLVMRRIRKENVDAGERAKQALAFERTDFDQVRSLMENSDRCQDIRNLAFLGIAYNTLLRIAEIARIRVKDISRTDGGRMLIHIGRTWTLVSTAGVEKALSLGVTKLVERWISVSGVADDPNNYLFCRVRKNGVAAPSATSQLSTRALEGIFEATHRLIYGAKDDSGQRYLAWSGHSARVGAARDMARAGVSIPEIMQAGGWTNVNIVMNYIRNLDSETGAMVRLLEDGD


Tests used:
[1] = molecular target: T1, Cre recombinase monomer with Q311R …
[2] = molecular target: T2, Cre recombinase monomer with R292W …
[3] = molecular target: T3, Cre recombinase monomer with W315I …
[4] = molecular target: T4, Cre recombinase monomer with Y324M …
[5] = molecular target: T5, Cre recombinase monomer with E176V …
[6] = molecular target: T6, Cre recombinase monomer with Y324E …
[7] = molecular target: T7, Cre recombinase monomer with E176H …
[8] = molecular target: T8, Cre recombinase monomer with E176I …
[9] = molecular target: T9, Cre recombinase monomer with K201W …

Protein | Median dimer activity (recombination on loxP) [1] [%] | Median dimer activity (recombination on loxP) [2] [%] | Median dimer activity (recombination on loxP) [3] [%] | Median dimer activity (recombination on loxP) [4] [%] | Median dimer activity (recombination on loxP) [5] [%] | Median dimer activity (recombination on loxP) [6] [%] | Median dimer activity (recombination on loxP) [7] [%] | Median dimer activity (recombination on loxP) [8] [%] | Median dimer activity (recombination on loxP) [9] [%]
Cre recombinase monomer with R173N mutation (protein) MSNLLTVHQNLPALPVDATSDEVRKNLMDMFRDRQAFSEHTWKMLLSVCRSWAAWCKLNNRKWFPAEPEDVRDYLLYLQARGLAVKTIQQHLGQLNMLHRRSGLPRPSDSNAVSLVMRRIRKENVDAGERAKQALAFERTDFDQVRSLMENSDRCQDIRNLAFLGIAYNTLLNIAEIARIRVKDISRTDGGRMLIHIGRTKTLVSTAGVEKALSLGVTKLVERWISVSGVADDPNNYLFCRVRKNGVAAPSATSQLSTRALEGIFEATHRLIYGAKDDSGQRYLAWSGHSARVGAARDMARAGVSIPEIMQAGGWTNVNIVMNYIRNLDSETGAMVRLLEDGD | 96 | 44 | 38 | 51 | – | – | – | – | –
Cre recombinase monomer with R173S mutation (protein) MSNLLTVHQNLPALPVDATSDEVRKNLMDMFRDRQAFSEHTWKMLLSVCRSWAAWCKLNNRKWFPAEPEDVRDYLLYLQARGLAVKTIQQHLGQLNMLHRRSGLPRPSDSNAVSLVMRRIRKENVDAGERAKQALAFERTDFDQVRSLMENSDRCQDIRNLAFLGIAYNTLLSIAEIARIRVKDISRTDGGRMLIHIGRTKTLVSTAGVEKALSLGVTKLVERWISVSGVADDPNNYLFCRVRKNGVAAPSATSQLSTRALEGIFEATHRLIYGAKDDSGQRYLAWSGHSARVGAARDMARAGVSIPEIMQAGGWTNVNIVMNYIRNLDSETGAMVRLLEDGD | 97 | – | – | – | 49 | 59 | – | – | –
Cre recombinase monomer with R173T mutation (protein) MSNLLTVHQNLPALPVDATSDEVRKNLMDMFRDRQAFSEHTWKMLLSVCRSWAAWCKLNNRKWFPAEPEDVRDYLLYLQARGLAVKTIQQHLGQLNMLHRRSGLPRPSDSNAVSLVMRRIRKENVDAGERAKQALAFERTDFDQVRSLMENSDRCQDIRNLAFLGIAYNTLLTIAEIARIRVKDISRTDGGRMLIHIGRTKTLVSTAGVEKALSLGVTKLVERWISVSGVADDPNNYLFCRVRKNGVAAPSATSQLSTRALEGIFEATHRLIYGAKDDSGQRYLAWSGHSARVGAARDMARAGVSIPEIMQAGGWTNVNIVMNYIRNLDSETGAMVRLLEDGD | 92 | – | – | – | 65 | – | 56 | 72 | 91
